Laboratory results published in the nanobody polyreactivity screen of Harvey et al. (2022).

Assay: yeast display, Sf9 membrane polyspecificity reagent, FACS + sequencing; frameworks hold sequencing errors
Method in brief: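 Sorting gates, low and high (top ~1%), were placed on anti-HA fluorescence to track expression and on streptavidin fluorescence to track reagent binding. A clone's polyreactivity label is taken from the gate it came out of. The reagent was 10% biotinylated, detergent-solubilized Sf9 membrane, applied for 1 hour at 4 °C to galactose-induced yeast display cells.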

Which “polyreactivity (PSR sort gate)” value does the source give for “QVQLVESGGGLVQAGGSLRLSCAASGSIFDYYTMGWYRQAPGKERELVASITRDGTSTYYADSVKGRFTISRDNAKNTVYLQMNSLKPEDTAVYYCAAERYGFTYSFYYWGQGTQVTVSS” here?
The value was “low polyreactivity”.

With “QVQLVESGGGLVQAGGSLRLSCAASGSTFRYYAMGWYRQAPGKERELVAGISSSGGRTYYADSVKGRFTISRDNAKNTVYLQMNSLKPEDTAVYYCAAVRSSWSYYYWGQGTQVTVSS” as the sequence, how does the “polyreactivity (PSR sort gate)” value read?
The value was “high polyreactivity”.

Which “polyreactivity (PSR sort gate)” value does the source give for “QVQIVESGAGLVHAGGSLRISCAASGRIFWIYAMGWYRQAPGKESELVATITGSGGSTYYADSVKGRFTISRDNAKKTVYLQMNSLKPEVTAVYYCAARYPVSGGYDYWGQGTQVTLSS” here?
The value was “low polyreactivity”.

With “QVQLVESGGGLVQAGGSLSLSCSASGRTLYFYAMGWYRQAPGKERELVAAIRWRGGSTYYADSVKGRFTISRDNAKNTVYLQMNSLKPEDTAVYYCAADVPSGYDYWGQGTQVTVSS” as the sequence, how does the “polyreactivity (PSR sort gate)” value read?
The value was “high polyreactivity”.

With “QVQLVESGGGLVQAGGSLRLSCAASGRTFTRYTMGWYRQAPGKERELVAAIRYSGGSTYYADSVKGRFTISRDNAKNTVYLQMNSLKPEDTAVYYCAARSYYYGFLYRYDYWGQGTQVTVSS” as the sequence, how does the “polyreactivity (PSR sort gate)” value read?
The value was “low polyreactivity”.

Which “polyreactivity (PSR sort gate)” value does the source give for “QVQLVESGGGLVQAGGSLRLSCAASGRIFTTNAMGWYRQAPGKDRELVAAITYSGGTTYYADSVKGRFTISRDNAKNTVYLEMNSLKPEDTAVYYCAADVKFSTPYDYWGQGTQVTVSS” here?
Its value is “low polyreactivity”.

For “KVQVVESGGGLVQAGGSLRLSCAASGRIFGVYAMGWYRQAPGKERELVAAINYSGTRTYYADSVKGRFTISRDNAKNTVYLQMNSLKPEDSAVYYCAARRGSYSVTEYWGQGTQVTVSS”, which “polyreactivity (PSR sort gate)” value is on record?
Its value is “high polyreactivity”.

For “QVQLVESGGGLVQAGGSLRLSCSASGFIYPNNAMGWYRQAPGKERELVARISYGGGDTHYADSVKGRFTISRDNAKNTVYLQMNSLKPEDTAVYYCAVKDGQDDYWGQGTQVTVSS”, which “polyreactivity (PSR sort gate)” value is on record?
Its value is “low polyreactivity”.

For “QVQLVESGGGLVQAGGSLRLSCAASGFIFYEYAMGWYRQSPGKERELVAGISWSGDSTYYADSVKGRFTISRDNAKNTVYLQMNRLKPEDTAVYYCAADPYYQGYDYWGQGTQVTVSS”, which “polyreactivity (PSR sort gate)” value is on record?
The value was “low polyreactivity”.

Which “polyreactivity (PSR sort gate)” value does the source give for “QVQLVESGGGLVQAGGSLRLSCAASGRTFQYYAMGWYRQAPGKERELVARINRSGGSTYYADSVKGRFTISRDNAKNTVYLQMNSLKPEDTAVYYCAADYLSRSPAYEHYYWGQGTQVTVSS” here?
The value was “high polyreactivity”.

With “QVQLVESGGGLVQAGGSLRLTCAASGRTFRIYAMGWYRQAPGKERELVAAIRWSGGTTYYADSVKGRFTISRDNAKNTVYFQMNSLKPEDTAVYYCAADSTNRYDYWGQGTQVTVSS” as the sequence, how does the “polyreactivity (PSR sort gate)” value read?
The value was “high polyreactivity”.

For “QVQLVESGGGLVQAGGSLRLSCAASGIIFYRYTMGWYRQAPGKERELVAAISSRGGSTYYADSVKGRFTISRDNAKNTVYLQMNSLKPEDTAVYYWNARSKRTARYNYWGQGTQVTVSS”, which “polyreactivity (PSR sort gate)” value is on record?
The value was “high polyreactivity”.

With “QVQLVESGGGLVQAGGSLRLSCAASGITFYRYAMGWYRQAPGKEREFVAAITWGSTYYADSVKGRFTISRDNAKNTVYLQMNSLTPEDTAVYYCNADWGGFWQHRELDSWGQGTQVTVSS” as the sequence, how does the “polyreactivity (PSR sort gate)” value read?
The value was “low polyreactivity”.

Which “polyreactivity (PSR sort gate)” value does the source give for “QVQLVETGGGLVQAGGSLRLSCAASGITFAYNTMGWYIQAPGKERELVAGISFSGASTYYADSVKGRFTISRDYAKNTVYLQMNSLKPEDTAVYDCAAPRWVANQYREYDYWGQGTQVTVSS” here?
The value was “high polyreactivity”.

Which “polyreactivity (PSR sort gate)” value does the source give for “QVQLVESGGGLVQAGGSLRLSCAASGITFDYYAMGWYRQAPGIERELVAAIDDSGGSTYYADSVKGRFTISRDNAKNTVYLQMNSLKPEDTAVYYCAAEFFYYEYDYWGQGTQVTVSS” here?
Its value is “high polyreactivity”.

Which “polyreactivity (PSR sort gate)” value does the source give for “QVQLVESGGGLVQAGGSLRLSCAASGRIFSYYAMGWYRQAPGKERELVASITSGGSTYADSVKGRCTISRDSAKNTVYLQMNSLKREDTAVYYCAAGGKRRWPRKHYGYWGQGSQVTVSS” here?
The value was “high polyreactivity”.

Which “polyreactivity (PSR sort gate)” value does the source give for “QVQLVESGGGLVQAGGSLRLSCAASGSIFGKYTMGWYRQAPGKERELVAGITYRAGSTYYADSVKGRFTISRDNAKNTVYLQMNSLKPEDTAVYYCAARFYFRWYYYGSYANYWGQGTQVTVSS” here?
The value was “high polyreactivity”.

For “QVQLVESGGGLVQAGGSLRLSCAAYGSIIVRYAMGWYGQAPGKVRELVPTITFRDTSTYYADSVKGRFTSSRDNAKNTVYLQMNSLKPEDSAVYYCNAHIPTNRSYVPAVRGEDDYWGQGTQVTVSS”, which “polyreactivity (PSR sort gate)” value is on record?
The value was “low polyreactivity”.

For “QVQLVESGGGLVQAGGSLRLSCAASGGISLRYAMGWYRQAPGKERELVAVIDFSGASTYYADSVKGRFTISRDNAKNTVYLQMNSLKPEDTAVYYCAADSHYQDDFRIQYDYWGQGTQVTVSS”, which “polyreactivity (PSR sort gate)” value is on record?
The value was “low polyreactivity”.

For “QVQLVESGGGLVQAGGSLRLSCAASGFIFADYAMGWYRQAPGKERELVAAISASGGITYYADSVKGRFTISRDNAKNTVYLQMNSLKPEDTAVYYCNAVTGKWNWRKYDYWGQGTQVTVSS”, which “polyreactivity (PSR sort gate)” value is on record?
The value was “high polyreactivity”.

With “QVQLVESGGGLVQAGGSLRLSCAASGITFVYNAMGWYRQAPGKERELVASITFGGGSTYYADSVKGRFTISRDNAKITVYLQMHSLKPEDTAVYYCAARLHVAFDYWGQGTQVTVSS” as the sequence, how does the “polyreactivity (PSR sort gate)” value read?
Its value is “low polyreactivity”.

With “QVQLVESGGGLVKEGGSLRLSCAASGSIYYENTMGWYRQAPGKERELVASISCGGSTYADSVKGRFTISRDNAKNSVYLQMYSLKAEDSAVYYCNADSSTEYDYWGQGTQVTVSS” as the sequence, how does the “polyreactivity (PSR sort gate)” value read?
The value was “low polyreactivity”.

For “QVQLVESGGGLVQAGGSLRLSCAASGSTFVDYAMGRYRQAPGKERELVAAITRSGSSTYYADSVKGRFTISRDIAKNTVYLQMNSLKPEDTAVYYCAAVRYRGLQVKFYYWGQGTQVTVSS”, which “polyreactivity (PSR sort gate)” value is on record?
The value was “high polyreactivity”.

For “QVQLVESGGGLVQAGGSLRLSCAASGSTFVVYAMGWYRQAPGKERELVAAISYRAGITYYADSVKGRFTISRDNAKNTVYLQMNSLKPEDTAVYYWAADRYYGVGSGYWGQGTQVTVSS”, which “polyreactivity (PSR sort gate)” value is on record?
Its value is “high polyreactivity”.

Which “polyreactivity (PSR sort gate)” value does the source give for “QVQLVESGGGLVQAGGSLRLSCAASGRIFRGYAMGWYRQAPGKERELVAAISGGGGSTYYADSVKGRFTISRDNAKNTVYLQMNSLKPEDTAVYYCNALRIRGSKVFEGDYWGQGTQVTVSS” here?
Its value is “high polyreactivity”.

Which “polyreactivity (PSR sort gate)” value does the source give for “QVQLVESGGGLVEAGGSLRLSCAASGSTVWRYAMGWYRQAPGKERELVAAISWNGGSTYYADSVKGRFTISRDNAKNTVYLQMHSLKPEDTAVYYCARGYSWSVGYPRVQDMDYWGQGTQVTVSS” here?
The value was “high polyreactivity”.

For “QVQLVESGVGLVQAGGSLRLSCAASGSIFQKYTMGWYRQAPGKERQLVAAITRSGGSTYYADSVKGRFTISRDNAKNTVYLQMNSLKAEDSAVYYCNKRYIPWAYDYWGQGTQVTVSS”, which “polyreactivity (PSR sort gate)” value is on record?
The value was “high polyreactivity”.

With “QVQLVESGGGLVQAGGSLLLSCAASGITFGDNAMGWYRQAPGKERELVAAISSGGSTDYADSVNGRFTISRDNAKNTVYLQMNSLKPEDTAVYYCAVDWVSVPEYDYWGQGTQVTVSS” as the sequence, how does the “polyreactivity (PSR sort gate)” value read?
Its value is “low polyreactivity”.

For “QVQLVESGGGLVQAGGRLRLSCAASGRTFLRYAMGWYRQAPGKERELVAAISVSGGNTYYADSVKGRFTISRDNAKNTVYLQMNSLKPEDTAVYYCNKARLAAVFSYPYGYWGQGTQVTVSS”, which “polyreactivity (PSR sort gate)” value is on record?
The value was “low polyreactivity”.

Which “polyreactivity (PSR sort gate)” value does the source give for “QVQLVESGGGLVQAGGSLRLSCAASGSIFHGYAMRWYRQAPGKERELVAAISRNGGGTYYADSVKGRFTISRDNAKNTVYLQMNSLKPEDTAVYYCAVVRYSSRYDYWGQGTQVTVSS” here?
Its value is “high polyreactivity”.

Which “polyreactivity (PSR sort gate)” value does the source give for “QVQLVESGGGLVQAGGSLRLSCASSGRTFPGNAMGWYRQAPGKERELVAAISWSGTRTYYADSVKGRFTISRDNAKNTVYLQMNSLKPEDTAVYYCNVVVKGAWDYYPYAYWGQGTQVTVSA” here?
Its value is “high polyreactivity”.

For “QVQLVESGGGLVQAGGSLRLSCAASGSIFFSNAMGWYRQAPGKEREFVATITSSGVGTYYADSVKGRFTISRDNAKNTVYLQMNSLKPEDTAVDYCDADYNSQEDYWGQGTQVTVSS”, which “polyreactivity (PSR sort gate)” value is on record?
The value was “low polyreactivity”.
